{"source": "patent US20250101083A1", "about": "(XIAMEN UNIVERSITY, published 2025)", "binders": {"B1": {"name": "125smIgG2 (Fc fusion)", "chain": "QLQLVESGGGLVQAGGSLRLSCAASGGTISAYAMGWFRQAPGKDREFVAGISWTTSSAYYTDSVKGRFTISRDFAKNTVYLQMNSLKPEDTAVYYCNDRVSDTVGFGSWGQGTQVTVSSPRVPITQNPCPPLKECPPCAAPDLLGGPSVFIFPPKIKDVLMISLSPMVTCVVVDVSEDDPDVQISWFVNNVEVHTAQTQTHREDYNSTLRVVSALPIQHQDWMSGKEFKCKVNNRALPSPIEKTISKPRGPVRAPQVYVLPPPAEEMTKKEFSLTCMITGFLPAEIAVDWTSNGRTEQNYKNTATVLDSDGSYFMYSKLRVQKSTWERGSLFACSVVHEGLHNHLTTKTISRSLGK"}}, "key": {"[1]": {"target": "T1, pTT5hIgG1-S5 fusion protein (hepatitis B virus (HBV subtype B))", "T1 construct": "also called S5 (Loop2-Cter); Loop2-Cter", "test": "ELISA, fusion protein coated at 1 µg/mL, antibody at 1 µg/ml"}, "[2]": {"target": "T2, pTT5hIgG1-S4 fusion protein (hepatitis B virus (HBV subtype B))", "T2 construct": "also called S4 (Cter); Cter", "test": "ELISA, fusion protein coated at 1 µg/mL, antibody at 1 µg/ml"}}, "data": [{"binder": "B1", "values": [{"measurement": "binding result", "setting": "[1]", "value": "binds"}, {"measurement": "binding result", "setting": "[2]", "value": "binds"}]}]}
